System: Micrococcus lysodeikticus lyophilized cell suspensions
Test: Lysozyme enzymatic assay: absorbance change at 450 nm of cell suspensions
Format: biochemical
Settings: 0.01 mg/mL enzyme, 10 μL into 250 μL cell suspension 0.32 mg/mL, 66 mM phosphate buffer pH 6.2; A450 every minute for 15 minutes; ratio of slopes minus blank
Method: Lysozyme is an antimicrobial enzyme that is capable of hydrolyzing the 1,4-beta-linkages in the peptidoglycan of Gram-positive bacterial cell walls, thus leading to the lysis of bacteria (Fig. 8a). Therefore, the catalytic activity of modified lysozyme was assessed by investigation of the absorbance change at 450 nm of Micrococcus lysodeikticus lyophilized cell suspensions over time, where the activity of the modified lysozyme is proportional to their capability to hydrolyze the bacterial cell walls.[45] In comparison to native lysozyme, the disulfide-modified lysozyme Ly-PEG-Tz retained 86% of its activity (Fig. 8b, calculation details shown in Section 8.3 in ESI ^†).
Fig. 8 (a) The hydrolysis of 1,4-beta-linkages between N-acetyl-D-glucosamine (NAG) and N-acetylmuramic acid (NAM) residues in peptidoglycans of Gram-positive bacterial cell walls. The absorbance of the cell suspension at 450 nm was monitored to evaluate their catalytic activity and the rate of absorbance decrease was proportional to its activity. […]
The lysozyme enzymatic assay was performed according to the protocol form Sigma Aldrich’s technical bulletin. […] 250 μL of the cell suspensions was added to the 96-well plate and the absorbance was measured at 450 nm. According to the obtained absorbance, the concentration was carefully adjusted to ensure the absorbance at 450 nm between 0.6 and 0.7. […]

“Ly-PEG5-Tz: lysozyme statistically modified at lysines with Tz-PEG5-NHS; mixture of no, single and dual modification” was tested, and the “catalytic activity retained in comparison to native lysozyme” value was “Total loss of the activity”.

In the case of “Ly-PEG-Tz: lysozyme (hen egg white) modified at the C6–C127 disulfide with PEG-tetrazine via compound 8”, the “catalytic activity retained in comparison to native lysozyme” value is reported as 86%.
